Data as given in US20070020327A1.
One block for each binder: values may come before it.

Legend:
[1] = target: HLA-A*0201 (human); experiment: inhibition of 125I-labelled probe peptide binding to purified HLA; gel filtration
[2] = target: HLA-A*0203 (human); experiment: as above
[3] = target: HLA-A*0202 (human); experiment: as above
[4] = target: HLA-A*0201 (human); experiment: competitive inhibition of 125I-labelled standard peptide binding to purified HLA, gel filtration; conditions: remark: other sources report otherwise
[5] = target: HLA-A*0202 (human); experiment: as above; conditions: remark: other sources report otherwise
[6] = target: HLA-A*0203 (human); experiment: as above; conditions: remark: other sources report otherwise
[7] = target: HLA-A*0206 (human); experiment: as above; conditions: remark: other sources report otherwise
[8] = target: HLA-A*0301 (human); experiment: competition with 125I-labelled standard peptide for purified HLA-A*0301, gel filtration; ratio to the A*0301 standard peptide 941.12 [..] (11 nM)
[9] = target: HLA-A*1101 (human); experiment: competition with a 125I-labelled standard peptide for purified HLA-A*1101, gel filtration; conditions: scale: ratio
[10] = target: HLA-A*0301 (human); experiment: competition with 125I-labeled standard peptide for purified HLA-A*0301, gel filtration
[11] = target: HLA-A*1101 (human); experiment: competition with 125I-labelled standard peptide for purified HLA-A*1101, gel filtration
[12] = target: HLA-A*6802 (human); experiment: inhibition of 125I-labelled probe peptide binding to purified HLA; gel filtration
[13] = target: HLA-A*0201 (human); experiment: inhibition of 125I-labelled probe peptide binding to purified HLA, gel filtration
[14] = target: HLA-A*0202 (human); experiment: as above
[15] = target: HLA-A*0203 (human); experiment: as above
[16] = target: HLA-A*0206 (human); experiment: as above
[17] = target: HLA-A*6802 (human); experiment: as above
[18] = target: HLA-A*0206 (human); experiment: competition with 125I-labelled standard peptide 941.01 for purified HLA-A*0206, gel filtration
[19] = target: HLA-A*0202 (human); experiment: competition with 125I-labelled standard peptide 941.01 for purified HLA-A*0202, gel filtration
[20] = target: HLA-A*0201 (human); experiment: competition with 125I-labelled standard peptide 941.01 for purified HLA-A*0201, gel filtration
[21] = target: HLA-A*0206 (human); experiment: inhibition of 125I-labelled probe peptide binding to purified HLA; gel filtration; conditions: remark: other sources report otherwise
[22] = target: HLA-A*0206 (human); experiment: competition with 125I standard peptide for purified HLA; gel filtration
[23] = target: HLA-A*0201 (human); experiment: as above
[24] = target: HLA-A*0202 (human); experiment: as above
[25] = target: HLA-A*0203 (human); experiment: as above
[26] = remark: other sources report otherwise

B4: PSM 714 peptide … (peptide)
peptide: DIESKVDPSK
modifications: not checked
binding affinity ratio (IC50 of standard peptide / IC50 of test peptide) [8]: 0.0003
binding affinity ratio [9]: 0.0002

B7: PAP 39 … (peptide)
peptide: TLVFRHGDR
modifications: not checked
binding affinity ratio (IC50 of standard peptide / IC50 of test peptide) [11]: 0.0002

B10: PSA 82 … (peptide)
peptide: TGQVFQVSH
modifications: not checked
binding affinity ratio (IC50 of standard peptide / IC50 of test peptide) [11]: 0.0002

B12: PAP 51 peptide … (peptide)
peptide: DTFPTDPIK
modifications: not checked
binding affinity ratio [9]: 0.0001

B14: Peptide 1418.22 … (HuK2.195.V9) (peptide)
peptide: FMLCAGLWV
modifications: not checked
IC50 [22, 26]: 51 nM

B15: PSM 641 peptide … (peptide)
peptide: EIASKFSER
modifications: not checked
binding affinity ratio [9]: 0.0002

B16: PSM 168 peptide … (peptide)
peptide: GMPEGDLVY
modifications: not checked
binding affinity ratio (IC50 of the standard peptide / IC50 of the test peptide) [11]: 0.0002

B19: Peptide 1418.23 … (PAP.21.T2) (peptide)
peptide: LTFFWLDRSV
modifications: not checked
IC50 [25]: 9.6 nM
IC50 [22]: 43 nM

B20: PSM 361 … (peptide)
peptide: TLRGAVEPDR
modifications: not checked
binding affinity ratio (IC50 of standard peptide / IC50 of test peptide) [11]: 0.0002

The remaining lines, values ahead:

IC50 [1, 26]: 73 nM
IC50 [2, 26]: 256 nM
B1: peptide 1177.02 (PAP.299) (peptide)
peptide: ALDVYNGLL
modifications: not checked

IC50 [1, 26]: 455 nM
IC50 [3, 26]: 269 nM
IC50 [2, 26]: 909 nM
B2: peptide 60.0207 (PAP.128.V9) (peptide)
peptide: GVSIWNPIV
modifications: not checked

binding affinity ratio (ratio to standard peptide) [4]: 0.001
binding affinity ratio (ratio to standard peptide) [5]: 0.012
binding affinity ratio (ratio to standard peptide) [6]: 0.0096
binding affinity ratio (ratio to standard peptide) [7]: 0.0001
B3: … (PSA, position 222) (peptide)
peptide: ITSWGSEPCAL
modifications: not checked

binding affinity ratio (ratio to standard peptide) [4]: 0.0003
binding affinity ratio (ratio to standard peptide) [5]: 0.01
binding affinity ratio (ratio to standard peptide) [7]: 0.0005
B5: … (Kallikrein, position 226) (peptide)
peptide: ITSWGPEPCA
modifications: not checked

binding affinity ratio (IC50 of standard peptide / IC50 of test peptide) [10]: 0.007
B6: … (PSA, position 99, 10 amino acids) (peptide)
peptide: MSLLKNRFLR
modifications: not checked

IC50 [1]: 25 nM
IC50 [3]: 1.8 nM
IC50 [2]: 17 nM
IC50 [12]: 60 nM
B8: peptide 1419.69 (PAP.136.V10) (peptide)
peptide: LLWQPIPVHV
modifications: not checked

IC50 [13]: 13 nM
IC50 [14]: 6.3 nM
IC50 [15]: 2.8 nM
IC50 [16]: 5.2 nM
IC50 [17]: 205 nM
B9: Peptide 1418.52 (HuK2.170.V10) … (peptide)
peptide: SLQCVSLHLV
modifications: not checked

binding affinity ratio (IC50 of standard peptide / IC50 of test peptide) [18]: 0.0006
binding affinity ratio (IC50 of standard peptide / IC50 of test peptide) [19]: 0.0006
binding affinity ratio (IC50 of standard peptide / IC50 of test peptide) [20]: -0.0001
B11: … (Kallikrein, position 7) (peptide)
peptide: SIALSVGCT
modifications: not checked

IC50 [1, 26]: 278 nM
IC50 [2, 26]: 133 nM
IC50 [21]: 2640 nM
B13: peptide 1419.6 (PAP.122) (peptide)
peptide: ALFPPEGVSI
modifications: not checked

IC50 [14, 26]: 1.3 nM
IC50 [15, 26]: 5.3 nM
IC50 [16, 26]: 37 nM
IC50 [17, 26]: 860 nM
B17: Peptide 1418.67 (HuK2.177.V11) … (peptide)
peptide: HLLSNDMCARV
modifications: not checked

IC50 [23]: 1.8 nM
IC50 [24]: 3.9 nM
IC50 [25]: 17 nM
IC50 [22]: 42 nM
B18: Peptide 1419.52 … (PAP.13.V10) (peptide)
peptide: SLSLGFLFLV
modifications: not checked
